Results on 1 molecule are retold here after article PMC3168509, “Insights into the Role of Yeast eIF2A in IRES-Mediated Translation” (PLoS ONE, 2011).

In the test the target is T1, GST-eEF1A (full-length eEF1A/Tef1p fused to GST) (S. cerevisiae, UniProt P02994 1-458).
T1 construct: yeast eEF1A, TEF1 amplified by PCR from genomic DNA; also called GST-TEF1; full-length eEF1A fusion protein; not shown: GST, N-terminal, kept
T1 sequence (looked up): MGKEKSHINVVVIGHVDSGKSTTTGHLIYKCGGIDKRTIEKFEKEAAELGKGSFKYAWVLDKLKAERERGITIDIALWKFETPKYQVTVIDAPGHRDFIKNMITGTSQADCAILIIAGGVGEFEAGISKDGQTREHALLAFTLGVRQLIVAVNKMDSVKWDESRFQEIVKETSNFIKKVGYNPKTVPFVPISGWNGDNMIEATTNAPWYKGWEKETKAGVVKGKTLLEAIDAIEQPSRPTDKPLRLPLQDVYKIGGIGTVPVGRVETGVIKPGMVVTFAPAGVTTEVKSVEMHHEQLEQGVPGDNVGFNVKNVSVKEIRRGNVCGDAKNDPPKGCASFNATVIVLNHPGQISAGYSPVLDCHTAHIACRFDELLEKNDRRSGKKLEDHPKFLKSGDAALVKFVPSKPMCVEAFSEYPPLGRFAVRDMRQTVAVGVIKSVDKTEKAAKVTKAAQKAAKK
In words: pull-down; full-length GST-eEF1A on glutathione-Sepharose with lysates of ΔeIF2A yeast carrying YCplac111-YP, grown 1 h without or with 6% ethanol; Western blot for HA, bands quantified with Image J against 8% input. To be noted: one partner purified.

B1: HA-eIF2A (N-terminally HA-tagged eukaryotic initiation factor 2A expressed from YCplac111-YP) (natural protein, S. cerevisiae, UniProt P53235 1-642, looked up)
chain: MSSQFFLKTSQDIELFQSYPTFEQSNTNSKDFPVISSVLSPCGRFLALSTKENVKVFTGPCLDNVLLTMKLSDVYDLHFSPAGNYLSTWERASIQDPNHKNVKVWYLNKPFKKDCVSEDIVPAYEYQAKSQSGWFLQFSKLDNYGLRLFKHDLKIVKLSSANADNFDFQSPFAVLSDDETSQHFTTYLISPAEHPTICTFTPEKGGKPAQLIIWALSEGKITKKIASKTFFKADSCQLKWNPLGNAILCLAITDFDSSNKSYYGENTLYLLSFQGVNGTLGGNSVRVSLTTGPVHDFTWSPTSRQFGVIAGYMPATISFFDLRGNVVHSLPQQAKNTMLFSPSGHYILIAGFGNLQGSVEILDRLDKFKCVSKFDATNTSVCKWSPGGEFIMTATTSPRLRVDNGVKIWHVSGSLVFVKEFKELLKVDWRSPCNYKTLENKDEAFFENHIINNWEPLPDSTTSSLDPKISNKSELQIHSSVQEYISQHPSREASSNGNGSKAKAGGAYKPPHARRTGGGRIVPGVPPGAAKKTIPGLVPGMSANKDANTKNRRRRANKKSSETSPDSTPAPSAPASTNAPTNNKETSPEEKKIRSLLKKLRAIETLKERQAVGDKLEDTQVLKIQTEEKVLKDLEKLGWKDE
notes: yeast eukaryotic initiation factor 2A, encoded by YGR054w; the HA-tagged eIF2A coding region behind its natural promoter; the kind of modification is not known; also called HA-tagged eIF2A; YGR054w; source: BY4684 ΔeIF2A yeast transformed with YCplac111-YP (native promoter), in lysate; not shown: HA, N-terminal, kept
Take B1: the “fold increase in interaction (6% ethanol against untreated cells)” value turned out to be 2 fold.
